“And” between values parts separate entries of the source, which are not always exact repeats. Equal entries are not always repeated.

Details in all cases: both partners purified
Test [1] concerns the target T1, PRPF40A WW12 (tandem WW domains, residues 141-236) (human, UniProt O75400 141-236).
T1 construct: pETM11 vector, NcoI/KpnI; 15N or 13C,15N labelled for NMR; also called PRPF40A WW tandem; PRPF40A tandem WW domains; source: E. coli BL21(DE3), purified (Ni-NTA, TEV, reverse Ni-NTA, SEC); not shown: His6, N-terminal, cleaved
Kind of test: ITC; 16-mer SF1 and polyproline peptides (N-terminal GB1 tagged) in the cell and PRPF40A construct in the syringe (said for Fig. 2; not told for Fig. 5C); 25 °C, 20 mM sodium phosphate pH 6.5, 100 mM NaCl; one-site model; apparent affinities.

The target in test [2] is T2, PRPF40A WW12 (tandem WW domains, residues 141-236) (human, UniProt O75400 141-236).
T2 construct: A few vector residues probably remain at the N-terminus after TEV cleavage (pETM11, NcoI site); 15N-labelled in the NMR experiments; also called PRPF40A WW tandem; WW12 wt; source: E. coli BL21(DE3), purified (Ni-NTA, TEV digestion, reverse Ni-NTA, SEC); not shown: His6, N-terminal, cleaved
In words: ITC; PRPF40A construct (WW12, N-ext-WW12 or its mutant) in the cell, GB1-SF1 or GB1-SF3A1 construct in the syringe (as shown in Supplementary Figures 16 and 21); 25 °C, 20 mM sodium phosphate pH 6.5, 100 mM NaCl; one-site binding model; at least duplicates; affinities apparent.

Test [3] deals with T1, PRPF40A WW12 (tandem WW domains, …). In words: ITC; GB1-tagged SF1/SF3A1 constructs in the syringe and the WW tandem in the cell; 25 °C, 20 mM sodium phosphate pH 6.5, 100 mM NaCl; one-site model; apparent affinities.
For test [4], the target named is T2, PRPF40A WW12 (tandem WW domains, …). Kind of test: ITC; GB1-peptide or GB1-SF1 construct in the cell, PRPF40A WW12 in the syringe (as shown in Supplementary Figures 7 and 16A); 25 °C, 20 mM sodium phosphate pH 6.5, 100 mM NaCl; one-site binding model; at least duplicates; affinities apparent.
The target of test [5] is T3, PRPF40A N-ext-WW12 (residues 56-236) (human, UniProt O75400 56-236).
T3 construct: PRPF40A isoform 1, residues 56-236: N-terminal proline-rich region and both WW domains; pETM11 vector; also called Nter Ext WW12; N-terminal extended WW12 construct; source: E. coli BL21(DE3), purified (Ni-NTA, TEV cleavage, reverse Ni-NTA, SEC); not shown: His6, N-terminal, cleaved
T3 sequence (looked up): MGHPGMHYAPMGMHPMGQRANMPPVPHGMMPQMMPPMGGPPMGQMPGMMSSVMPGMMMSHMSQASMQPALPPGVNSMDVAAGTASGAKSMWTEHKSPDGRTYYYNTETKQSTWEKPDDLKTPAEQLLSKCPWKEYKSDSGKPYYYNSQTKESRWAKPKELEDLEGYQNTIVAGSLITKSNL
In words: ITC; MicroCal PEAQ-ITC, 25 °C, 20 mM sodium phosphate pH 6.5, 100 mM NaCl; PRPF40A constructs and GB1-tagged SF1 16-mer peptides; who was in the syringe is not stated for these panels (Fig. 2B, Fig. 5C); one-site model.

In test [6] the target is T4, PRPF40A WW12 (tandem WW domains, residues 141-236) (human, UniProt O75400 141-236).
T4 construct: pETM11 vector (NcoI/KpnI); also called PRPF40A WW tandem; isolated WW domains; source: E. coli BL21(DE3), purified (Ni-NTA, TEV cleavage, reverse Ni-NTA, SEC); not shown: His6, N-terminal, cleaved
In words: ITC; MicroCal PEAQ-ITC, 25 °C, 20 mM sodium phosphate pH 6.5, 100 mM NaCl; GB1-polyproline peptides in the cell, WW12 in the syringe (N sites >1: more than one WW tandem on one peptide); one-site model; apparent.

Test [7] concerns the target T4, PRPF40A WW12 (tandem WW domains, …). Kind of test: ITC; MicroCal PEAQ-ITC, 25 °C, 20 mM sodium phosphate pH 6.5, 100 mM NaCl; PRPF40A constructs and GB1-tagged SF1 16-mer peptides; who was in the syringe is not stated for these panels (Fig. 2B, Fig. 5C); one-site model.

B1: GB1-tagged SF1 470-485 peptide (peptide)
chain: GAMSGSMPPPPMGMMPPPPPPPSGSN
notes: common N-terminal residues after the TEV site; SF1 residues 470-485; common C-terminal residues; source: E. coli BL21(DE3), purified (Ni-NTA, SEC), GB1 tag kept; not shown: GB1, N-terminal, kept
In the case of B1, the Kd in test [1] is about 10 µM.

B2: GB1-SF3A1 Middle Pro (residues 364-413) (domain or fragment, UniProt Q15459 364-413, looked up)
chain: EGQKVPPPPETPMPPPLPPTPDQVIVRKDYDPKASKPLPPAPAPDEYLVS
notes: SF3A1 (U2 snRNP component), proline-rich region, residues 364-413; His6-GB1-TEV site cassette of the pET24 vector, not cleaved; source: E. coli BL21(DE3), purified (Ni-NTA, SEC); not shown: GB1, N-terminal, kept
Regarding B2, in test [2], the Kd was 8.86 ± 1.38 µM and the “stoichiometry N” value came out at 0.56 ± 0.14 sites.

B3: GB1-tagged SF3A1 Middle Pro (364-413) (domain or fragment, UniProt Q15459 364-413, looked up)
chain: B2 chain
notes: SF3A1 residues 364-413, proline-rich region with a PPLP motif; also called SF3A1 region (364-413); source: E. coli BL21(DE3), purified (Ni-NTA, SEC), GB1 tag kept; not shown: GB1, N-terminal, kept
For B3, in test [3], the Kd was about 10 µM.

B4: GB1-SF1 Pro BC (residues 468-594) (domain or fragment, UniProt Q15637 468-594, looked up)
chain: GMMPPPPMGMMPPPPPPPSGQPPPPPSGPLPPWQQQQQQPPPPPPPSSSMASSTPLPWQQNTTTTTTSAGTGSIPPWQQQQAAAAASPGAPQMQGNPTMVPLPPGVQPPLPPGAPPPPPPPPPGSAG
notes: splicing factor 1 (SF1), residues 468-594; His6-GB1-TEV site cassette of the pET24 vector, not cleaved; also called SF1 BC; source: E. coli BL21(DE3), purified (Ni-NTA, SEC); not shown: GB1, N-terminal, kept
As to B4, the “stoichiometry N” value in test [2] amounted to 0.53 ± 0.05 sites.

B5: GB1-polyproline peptide P19 (peptide)
chain: PPPPPPPPPPPPPPPPPPP
For B5, in test [4], the Kd was determined as 6.76 ± 0.96 µM.

B6: GB1-SF1 Pro BCD (residues 468-639) (domain or fragment, UniProt Q15637 468-639, looked up)
chain: GMMPPPPMGMMPPPPPPPSGQPPPPPSGPLPPWQQQQQQPPPPPPPSSSMASSTPLPWQQNTTTTTTSAGTGSIPPWQQQQAAAAASPGAPQMQGNPTMVPLPPGVQPPLPPGAPPPPPPPPPGSAGMMYAPPPPPPPPMDPSNFVTMMGMGVAGMPPFGMPPAPPPPPPQN
notes: splicing factor 1 (SF1), residues 468-639; His6-GB1-TEV site cassette of the pET24 vector, not cleaved; source: E. coli BL21(DE3), purified (Ni-NTA, SEC); not shown: GB1, N-terminal, kept
For B6, in test [2], the “stoichiometry N” value amounted to 0.28 ± 0.02 sites.

B7: GB1-SF1(470-485) 16-mer peptide (peptide)
chain: GAMSGSMPPPPMGMMPPPPPPPSGSN
notes: common N-terminal residues after the TEV site (TEVsite-GAMSGS-peptide-SGSN); SF1 (splicing factor 1) residues 470-485; common C-terminal residues; pET24 vector with 6xHis, GB1 and TEV site as N-terminal cassette, not cleaved; source: E. coli BL21(DE3), purified (Ni-NTA, SEC); not shown: GB1, N-terminal, kept
For the molecule B7, the Kd in test [5] is over 250 µM.

B8: GB1-polyproline peptide P25 (peptide)
chain: GAMSGSPPPPPPPPPPPPPPPPPPPPPPPPPSGSN
notes: common N-terminal residues after the TEV site (TEVsite-GAMSGS-peptide-SGSN); 25 consecutive prolines; common C-terminal residues; pET24 vector with 6xHis, GB1 and TEV site as N-terminal cassette, not cleaved; also called polyproline length 25; source: E. coli BL21(DE3), purified (Ni-NTA, SEC); not shown: GB1, N-terminal, kept
With B8, the Kd in test [6] is 10.5 µM and 11 µM and 10.8 µM.

B9: GB1-SF1 Pro CD (residues 539-639) (domain or fragment, UniProt Q15637 539-639, looked up)
chain: GSIPPWQQQQAAAAASPGAPQMQGNPTMVPLPPGVQPPLPPGAPPPPPPPPPGSAGMMYAPPPPPPPPMDPSNFVTMMGMGVAGMPPFGMPPAPPPPPPQN
notes: splicing factor 1 (SF1), residues 539-639; His6-GB1-TEV site cassette of the pET24 vector, not cleaved; source: E. coli BL21(DE3), purified (Ni-NTA, SEC); not shown: GB1, N-terminal, kept
On to B9, for which, in test [2], the “stoichiometry N” value came out at 0.39 ± 0.02 sites.

B10: GB1-SF1(623-638) 16-mer peptide (peptide)
chain: GAMSGSMPPFGMPPAPPPPPPQSGSN
notes: common N-terminal residues after the TEV site (TEVsite-GAMSGS-peptide-SGSN); SF1 (splicing factor 1) residues 623-638; common C-terminal residues; pET24 vector with 6xHis, GB1 and TEV site as N-terminal cassette, not cleaved; source: E. coli BL21(DE3), purified (Ni-NTA, SEC); not shown: GB1, N-terminal, kept
Turning to B10, the Kd in test [7] was 21.8 µM and 24.8 µM and 23.3 µM.

B11: GB1-polyproline peptide P13 (peptide)
chain: GAMSGSPPPPPPPPPPPPPSGSN
notes: common N-terminal residues after the TEV site (TEVsite-GAMSGS-peptide-SGSN); 13 consecutive prolines; common C-terminal residues; pET24 vector with 6xHis, GB1 and TEV site as N-terminal cassette, not cleaved; also called polyproline length 13; source: E. coli BL21(DE3), purified (Ni-NTA, SEC); not shown: GB1, N-terminal, kept
With B11, in test [6], the Kd is 7.58 µM and 10.6 µM and 7.45 µM and 8.54 µM.

B12: GB1-SF1 Pro B (residues 468-539) (domain or fragment, UniProt Q15637 468-539, looked up)
chain: GMMPPPPMGMMPPPPPPPSGQPPPPPSGPLPPWQQQQQQPPPPPPPSSSMASSTPLPWQQNTTTTTTSAGTG
notes: splicing factor 1 (SF1), residues 468-539 of the proline-rich C-terminal region; His6-GB1-TEV site cassette of the pET24 vector, not cleaved; source: E. coli BL21(DE3), purified (Ni-NTA, SEC); not shown: GB1, N-terminal, kept
On to B12, for which the Kd in test [4] is 20.6 ± 4.9 µM.

B13: GB1-SF1(478-493) 16-mer peptide (peptide)
chain: GAMSGSMPPPPPPPSGQPPPPPSGSN
notes: common N-terminal residues after the TEV site (TEVsite-GAMSGS-peptide-SGSN); SF1 (splicing factor 1) residues 478-493; common C-terminal residues; pET24 vector with 6xHis, GB1 and TEV site as N-terminal cassette, not cleaved; source: E. coli BL21(DE3), purified (Ni-NTA, SEC); not shown: GB1, N-terminal, kept
With B13, the Kd in test [7] was 8.26 µM and 10.3 µM and 10.2 µM and 9.59 µM.

Source of the values: PMC11079029, “Intramolecular autoinhibition regulates the selectivity of PRPF40A tandem WW domains for proline-rich motifs” (Nature Communications, 2024).
